Article PMC8458453, “Structural basis of human PDZD8–Rab7 interaction for the ER-late endosome tethering” (Scientific Reports, 2021)

Target: T1, human Rab7 Q67L (residues 2–195), GTP-loaded (human, UniProt P51149 2-195, Q67L)
T1 construct: Supplemented with 1 mM GTP; Mg2+ and GTP are seen in the structure; also called Rab7A; Rab7-GTP; source: E. coli BL21(DE3), purified (Ni-NTA, thrombin cleavage, SEC; same procedure as the PDZD8 CC)
Assay: ITC; 1 mM MBP-PDZD8 CC in the syringe injected (2 μl × 25) into 0.1 mM Rab7 in the cell; 20 °C; 20 mM Tris-HCl pH 7.5, 150 mM NaCl; Rab7 Q67L loaded with 1 mM GTP, Rab7 T22N with 1 mM GDP; two-site model for wild type, independent (single-site) model for mutants
Conditions: both partners purified

T1 sequence (P51149 2-195 Q67L): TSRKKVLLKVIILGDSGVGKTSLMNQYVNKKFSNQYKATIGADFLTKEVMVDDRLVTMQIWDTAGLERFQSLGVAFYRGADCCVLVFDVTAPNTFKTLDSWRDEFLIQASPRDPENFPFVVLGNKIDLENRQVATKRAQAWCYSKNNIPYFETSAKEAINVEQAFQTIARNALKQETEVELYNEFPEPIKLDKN

Kd	binding result	Binder
0.66 µM		MBP-PDZD8 CC A1086R (domain or fragment, human, UniProt Q8NEN9 994-1123, looked up, also called PDZD8 A1086R; source: purified recombinant protein; not shown: His tag, N-terminal, kept; MBP, N-terminal, kept) GNSTGIKLVRKEGGLDDSVFIAVKEIGRDLYRGLPTEERIQKLEFMLDKLQNEIDQELEHNNSLVREEKETTDTRKKSLLSAALAKSGERLQRLTLLMIHYRAGIEDIETLESLSLDQHSKKISKYTDDT
9.2 µM		MBP-PDZD8 CC I1092E (domain or fragment, human, UniProt Q8NEN9 994-1123, looked up, also called PDZD8 I1092E; source: purified recombinant protein; not shown: His tag, N-terminal, kept; MBP, N-terminal, kept) GNSTGIKLVRKEGGLDDSVFIAVKEIGRDLYRGLPTEERIQKLEFMLDKLQNEIDQELEHNNSLVREEKETTDTRKKSLLSAALAKSGERLQALTLLMEHYRAGIEDIETLESLSLDQHSKKISKYTDDT
	binds	MBP-PDZD8 CC, residues 980–1123 (domain or fragment, human, UniProt Q8NEN9 980-1123, looked up, source: purified recombinant protein; not shown: His tag, N-terminal, kept; MBP, N-terminal, kept) SDTEVCGPNSPSKRGNSTGIKLVRKEGGLDDSVFIAVKEIGRDLYRGLPTEERIQKLEFMLDKLQNEIDQELEHNNSLVREEKETTDTRKKSLLSAALAKSGERLQALTLLMIHYRAGIEDIETLESLSLDQHSKKISKYTDDT
